This assay addresses Src substrate peptide … derived from p130cas, tyrosine-phosphorylated by Src. Nature of the assay: cell-based or functional assay.

As for c-Src SH2 domain of the Src reporter, the cyan-to-yellow emission ratio of the purified Src reporter after in vitro phosphorylation by Src came out at 25%, the emission ratio change of the Src reporter in HeLa cells on EGF stimulation lay within 25 to 35% and the emission ratio change of the monomeric (A206K CFP/YFP) Src reporter in response to Src kinase in vitro is 43%.

Values taken from US20090305309A1.
